Laboratory results from patent publication US12723078 (University of Texas, dated 2026).

How the values were obtained:
[1] = target: T1, recombinant LILRB1 (human, UniProt Q8NHL6 24-461); assay: ELISA, coated recombinant LILRB1, antibody titration;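 further: serially diluted anti-LILRB1 antibodies incubated 60 min at 37 °C on plates coated with 50 ng/well recombinant protein, TMB colorimetric development read as absorbance at 450 nm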
T1 construct: LILRB1-Fc proteins were also made; also called LILRB1 recombinant proteins
T1 sequence (Q8NHL6 24-461 limits assumed): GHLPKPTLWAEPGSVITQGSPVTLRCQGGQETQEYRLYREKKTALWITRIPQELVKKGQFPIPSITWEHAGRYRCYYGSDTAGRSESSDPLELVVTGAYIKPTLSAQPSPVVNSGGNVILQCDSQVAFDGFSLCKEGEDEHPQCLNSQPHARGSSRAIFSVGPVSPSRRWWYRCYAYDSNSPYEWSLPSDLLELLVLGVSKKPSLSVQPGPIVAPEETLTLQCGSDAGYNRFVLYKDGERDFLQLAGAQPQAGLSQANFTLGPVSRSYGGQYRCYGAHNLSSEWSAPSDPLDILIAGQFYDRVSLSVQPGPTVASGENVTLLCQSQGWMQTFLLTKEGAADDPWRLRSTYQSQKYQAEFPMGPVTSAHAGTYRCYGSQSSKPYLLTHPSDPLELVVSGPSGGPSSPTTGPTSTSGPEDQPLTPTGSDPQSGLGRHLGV
Procedure: (§1) ELISA. LILRB1 recombinant proteins (50 ng/well, 100 μL per well) were coated on Corning 96-well ELISA plates at 37° C. for 4 hrs. Plates were blocked for 2 hrs at 37° C. with 5% non-fat milk. After washing with PBST, 100 μL of serial diluted anti-LILRB1 antibodies were added and incubated for 60 min at 37° C. […] Plates were washed again with PBST for another 5 times, then the immunoreactions were developed with TMB substrates (Sigma, Cat #T0440) and stopped by the addition of 2 M H_2SO_4 before the plate was read at 450 nm.

[2] = target: T1, recombinant LILRB1; assay: BLI (Octet RED96), antibody on biosensor, recombinant LILRB1 in solution;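 further: Background-subtracted sensorgrams fitted with a one-to-one binding model, KD taken as koff over kon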
Procedure: (§2) Following a short baseline in kinetics buffer for 20 s, the loaded biosensors were exposed to solutions of recombinant LILRB1 in a range of concentrations (0-500 nM). After background was subtracted, data was fit to a 1:1 binding model to extract an association rate ($kon$) and dissociation rate ($koff$). The KD was calculated using the ratio $koff/kon$. […] All experiments were performed with shaking at 1,000 rpm. All raw data was processed using ForteBio Octet Data Analysis Software 9.0.

[3] = target: T2, LILRA1 (human, UniProt O75019); assay: Octet RED96, cross-reactivity table
T2 construct: not the cell-surface form of MOLECULES; also called LILRA1 protein of the ELISA and Octet specificity tests
T2 sequence (O75019 17-461 limits assumed): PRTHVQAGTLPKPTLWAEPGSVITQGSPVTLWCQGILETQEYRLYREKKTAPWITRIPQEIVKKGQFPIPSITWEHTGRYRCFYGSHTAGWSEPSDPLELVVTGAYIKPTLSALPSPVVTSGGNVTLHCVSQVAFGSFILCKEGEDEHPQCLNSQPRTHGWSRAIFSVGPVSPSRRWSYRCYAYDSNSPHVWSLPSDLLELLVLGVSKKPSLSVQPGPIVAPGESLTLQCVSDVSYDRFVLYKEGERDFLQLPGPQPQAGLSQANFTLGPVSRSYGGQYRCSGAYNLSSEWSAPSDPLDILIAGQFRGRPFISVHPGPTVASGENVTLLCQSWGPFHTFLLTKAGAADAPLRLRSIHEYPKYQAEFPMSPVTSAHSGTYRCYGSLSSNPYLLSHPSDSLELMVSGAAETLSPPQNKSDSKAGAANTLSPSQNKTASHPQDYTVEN

[4] = target: T3, recombinant human LILRB1 protein (human, UniProt Q8NHL6 24-461); assay: ELISA
T3 construct: ELISA and Octet methods say only 'recombinant LILRB1'; also called recombinant LILRB1; LILRB1 recombinant proteins
T3 sequence (Q8NHL6 24-461 limits assumed): as the sequence (Q8NHL6 24-461 limits assumed) above
Procedure: as §1

[5] = target: T3, recombinant human LILRB1 protein; assay: ELISA; remark: listed apart in the source
Procedure: as §1

[6] = target: T3, recombinant human LILRB1 protein; assay: Octet RED96, LILRB1 at 100, 33.3, 11.1 and 3.7 nM
Procedure: as §2

Binder | EC50 [1] [ng/mL] | Kd [2] [nM] | koff [2] [s⁻¹] | kon [2] [M⁻¹ s⁻¹] | binding result [3] | further results
B1-#178-2 (antibody, V domains shown, recombinant rabbit IgG) VH: QKQLVESGGGLVQPEGSLALTCTASGFSFSSSYWICWVRQAPGKGLEWIACIYAGSSGSTYYASWVNGRFTVFKTSSTTVTLQMTSLTAADTATYFCARGGTSYRLDLWGPGTLVTVSS VL: ELVLTQTPSSKSVAVGDTVTINCQASDNVYSNNYTSWFQQKPGQPPKQLLYYAAYRASGVPSRFKGSGSGTEFTLSISDVVCDDAATYYCSGHKDYSDDGSTFGGGTEVEIK | 14.2 | 1.59 | 0.000273 | 172000 | – | –
B1-#5 (antibody, V domains shown, recombinant rabbit IgG) VH: EQSLEESGGDLVKPEGSLTLTCTASELSFSSAYYMCWVRQAPGKGLEWIGCIYSGDGDTYYANWAKGRFTISKTSSTTVTLQMTSLTDADTATYFCARALDSHYSSFDLWGPGTLVTISS VL: ELDMTQTPSSVSAAVGDTVTIKCQASQSIYRYLAWYQQKPGQRPSLLIYYGSDLASGVPSRFSGSGSGTEFTLTISDLECADAASYYCQTTYDDYHNGWAFGGGTNVEIN | 6.02 | – | – | – | binds | –
humanized B1-176 with heavy chain Hu-176 VH-1 and light chain Hu-176 VL (antibody, V domains shown) VH: EVQLVESGGGLVQPGGSLRLSCAASGFSFSSSYCMCWVRQAPGKGLEWVSCIYTDSSGATYYASWAKGRFTISRHNSKNTLYLQMNSLRAEDTAVYYCARGWDYEDPGYTDTTYFSLWGRGTLVTVSS VL: DIQLTQSPSFLSASVGDRVTITCQASQTIYTNLAWYQQKPGKAPKLLIYAASTLASGVPSRFSGSGSGTEFTLTISSLQPEDFATYYCQSYYGSSTTGNGFGGGTKVEIK | – | – | – | – | – | binding result [4]: binds
Hu B1-176-LALAPG (antibody, V domains shown, Human IgG1 with L234A, L235A and P329G) VH: EVQLVESGGGLVQPGGSLRLSCAASGFSFSSSYCMCWVRQAPGKGLELVSCIYTDSSGATYYASWAKGRFTISRHNSKNTLYLQMNSLRAEDTAVYYCARGWDYEDPGYTDTTYFSLWGRGTLVTVSS VL: DIQLTQSPSFLSASVGDRVTITCQASQTIYTNLAWYQQKPGKAPKLLIYAASTLASGVPSRFSGSGSGTEFTLTISSLQPEDFATYYCQSYYGSSTTGNGFGGGTKVEIK | – | – | – | – | – | EC50 (read off the curve) [5]: ~40 ng/mL
Hu B1-176-N297A (antibody, V domains shown, Human IgG1 with N297A) VH: EVQLVESGGGLVQPGGSLRLSCAASGFSFSSSYCMCWVRQAPGKGLELVSCIYTDSSGATYYASWAKGRFTISRHNSKNTLYLQMNSLRAEDTAVYYCARGWDYEDPGYTDTTYFSLWGRGTLVTVSS VL: DIQLTQSPSFLSASVGDRVTITCQASQTIYTNLAWYQQKPGKAPKLLIYAASTLASGVPSRFSGSGSGTEFTLTISSLQPEDFATYYCQSYYGSSTTGNGFGGGTKVEIK | – | – | – | – | – | Kd [6]: 0.351 nM
B1-176-N297A (antibody, V domains shown) VH: QSLEESEGGLVKPGGTLTLTCTASGFSFSSSYCMCWVRQAPGKGLELIACIYTDSSGATYYASWAKGRFTISKSSSTTITLQMTSLTAADTATYFCARGWDYEDPGYTDTTYFSLWGPGTLVTVSS VL: ELDLTQTPSSVEAAVGGTVTIKCQASQTIYTNLAWYQQKPGQPPNLLIYAASTLASGVSSRFKGSGSGTEFTLTISDLECADAATYYCQSYYGSSTTGNGFGGGTEVEIK | – | – | – | – | – | Kd [6]: 0.17 nM
B1-#27 (antibody, V domains shown, recombinant rabbit IgG) VH: EQSVKESGGGLVQPEGSLTLTCTVSGFSFSGSYWICWVRQAPGKGLEWIACIYGDSIATYYPNWAKGRFTISKTSSTTVTLQMASLTGADTATYFCARDRNGGSGAYGWDLWGPGTLVTISS VL: ELDLTQTPASVSEPVGGTVTITCQASQSISSYLSWYQQTPGQPPKLLIYKASTLASGVPSRFKGSGSGTEFTLTISDLECADAATYYCQSYYYISATVDNTFGGGTEVEIK | 7.94 | 1.27 | 0.000161 | 127000 | – | –
B1-#190 (antibody, V domains shown, recombinant rabbit IgG) VH: QEQLKESGGDLVKPEGSLTLTCTASGFSFSSDYWVCWVRQAPGKGPEWIGCIYTGDDDTYYASWAKGRFTISKTSSTTVTLEVTSLTAADTATYFCARGLTIGTAELYFWGPGTVVTVSS VL: ELVLTQTPSPVSAAVGGTVTINCQASQSISNELSWYQQKPGQPPKLLIYLASTLDSGVPSRFKGSGSGTQFTLTISDLECADAATYYCQSHYYGGSSDYGWAFGGGTEVVVK | 6.78 | – | – | – | binds | –

Further lines, with some results ahead:

EC50 [1] [ng/mL] | Kd [2] [nM] | koff [2] [s⁻¹] | kon [2] [M⁻¹ s⁻¹] | binding result [3] | Binder | further results
11 | 3.03 | 0.000209 | 68900 | – | B1-#209 (antibody, V domains shown, recombinant rabbit IgG) VH: SQSVEESGGDLVKPGGTLTLTCTASRIDLNNYYYISWVRQAPGKGLEWIGVVATDSSVTWYASWAKGQFTISKTSSTTVTLQMTSLTAADTATYFCARGSGAATNGVWWVMGDGMDLWGPGTLVTVSS VL: ELVMTQTPASVSEPVGGTVTIKCQASQSISSYLSWYQQKPGQPPKRLIYKASTLASGVPSRFKGSGSGTEFTLTISGVQCADAATYYCQNNYHSGSSNGGGFAFGGGTEVEIK | –
7.37 | – | – | – | no binding (tested: not given) | B1-#204 (antibody, V domains shown, recombinant rabbit IgG) VH: QSVKESGGGLVKPGGTLTLTCTASGFSFSSSYCMCWVRQAPGKGLELIACIYTDSSGATYYASWAKGRFTISKSSSTTITLQMTSLTAADTATYFCARGWDYEDPGYTDTTYFSLWGPGTLVTVSS VL: ELDMTQTPSSVEAAVGGTVTIKCQASQTIYTNLAWYQQKPGQPPNLLIYAASTLASGVSSRFKGSGSGTEFTLTISDLECADAATYYCQSYYGSSTTGNGFGGGTEVEIN | –
9.42 | 0.0272 | 5.92e-06 | 218000 | – | B1-#198 (antibody, V domains shown, recombinant rabbit IgG) VH: QSLEESGGGLVKPEGSLTLTCTASGFDLSNNYYICWVRQAPGKGLELIACVDSDLTDSADYASWAKGRFTISKTSSTTVTLQMTSLTAADTATYFCAGSGSGYYYYYGMDLWGPGTLVTISS VL: ELDMTQTPASVSEPVGGTVTIKCQASQSIGSYLAWYQQKPGQPPKLLAFYASTLKSGVPPRFKGSGSGTEFTLTISDLECADAATYYCQSNRLSSSDVNAFGGGTEVEIK | –
– | – | – | – | binds | B1-#3 (antibody, V domains shown, IgG; also called antagonistic B1-3) VH: QSLEESEGDLVKPEGSLTLTCKASGFDFSSDAMCWVRQAPGKGLEWIGCIYNGDEITDHASWAKGRFTISKTSPTTVTLQMTSLTVADTATYFCARAVYSDGGAGYPYMYGMDLWGPGTLVTVSS VL: ELDMTQTPASVEAAVGGTVTIKCQASQNIYSYLVWYQQKPGQPPKLLISKASTLASGVSSRFKGSGSGTEFTLTINDLECADAATYYCQTNYFSSTSHFGVFTFGGGTELEIK | –
